Experimental findings from US5756291, “Aptamers specific for biomolecules and methods of making” (Gilead Sciences, Inc.) are described below.

Data set [1] deals with T1, thrombin (alpha, Factor IIa) (Homo sapiens, UniProt P00734;P00734 P00734:328-363,P00734:364-622). Briefly: inhibition.
Data set [2] addresses T1, thrombin (alpha, Factor IIa). The data set is described as follows: inhibition; 100 nM; no DNA 23 s.
Data set [3] shares this target. Briefly: filter.
In data set [4] the target is prothrombin (Homo sapiens, UniProt P00734 P00734:44-622). The data set is described as follows: EMSA; 500 nM protein, 4 C. Background: Mobility shift assays separate free from complexed probe on a gel.
For data set [5], the target named is trypsin (UniProt P00760 P00760:24-246). Briefly: EMSA; 500 nM protein, 4 C.
Data set [6] concerns the target chymotrypsin (UniProt P00766;P00766;P00766 P00766:1-13,P00766:16-146,P00766:149-245). Briefly: EMSA; 500 nM protein, 4 C.
For data set [7], the target named is serum albumin (Homo sapiens, UniProt P02768 P02768:25-609). The data set is described as follows: EMSA; 500 nM protein, 4 C.
Data set [8] has as its target Factor X (UniProt P00742;P00742 P00742:41-179,P00742:183-488). Briefly: EMSA; 500 nM protein, 4 C. Conditions: tags: Haematologic Technologies HCXA-0060.

Factor X, sequence (P00742 41-179, chain 1 of 2): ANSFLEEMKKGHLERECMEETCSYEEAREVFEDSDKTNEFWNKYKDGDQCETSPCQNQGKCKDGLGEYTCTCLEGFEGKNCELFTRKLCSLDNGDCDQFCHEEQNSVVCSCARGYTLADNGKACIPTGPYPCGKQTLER
Factor X, sequence (P00742 183-488, chain 2 of 2): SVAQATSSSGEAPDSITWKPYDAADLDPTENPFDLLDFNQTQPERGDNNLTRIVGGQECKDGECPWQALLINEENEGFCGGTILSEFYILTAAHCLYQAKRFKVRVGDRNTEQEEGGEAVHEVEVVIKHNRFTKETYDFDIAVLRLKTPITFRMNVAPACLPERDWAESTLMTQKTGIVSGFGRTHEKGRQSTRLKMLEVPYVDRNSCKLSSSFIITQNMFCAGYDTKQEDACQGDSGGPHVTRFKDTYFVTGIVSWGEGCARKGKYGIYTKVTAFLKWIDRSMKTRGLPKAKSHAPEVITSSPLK
trypsin, sequence (P00760 24-246, one chain of several): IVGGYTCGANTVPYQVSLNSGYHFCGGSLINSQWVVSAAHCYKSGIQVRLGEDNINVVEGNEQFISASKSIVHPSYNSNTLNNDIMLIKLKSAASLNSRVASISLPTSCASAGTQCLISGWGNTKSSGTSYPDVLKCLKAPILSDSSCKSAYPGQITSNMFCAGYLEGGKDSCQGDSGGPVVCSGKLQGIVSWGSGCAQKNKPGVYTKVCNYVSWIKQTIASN
serum albumin, sequence (P02768 25-609, one chain of several): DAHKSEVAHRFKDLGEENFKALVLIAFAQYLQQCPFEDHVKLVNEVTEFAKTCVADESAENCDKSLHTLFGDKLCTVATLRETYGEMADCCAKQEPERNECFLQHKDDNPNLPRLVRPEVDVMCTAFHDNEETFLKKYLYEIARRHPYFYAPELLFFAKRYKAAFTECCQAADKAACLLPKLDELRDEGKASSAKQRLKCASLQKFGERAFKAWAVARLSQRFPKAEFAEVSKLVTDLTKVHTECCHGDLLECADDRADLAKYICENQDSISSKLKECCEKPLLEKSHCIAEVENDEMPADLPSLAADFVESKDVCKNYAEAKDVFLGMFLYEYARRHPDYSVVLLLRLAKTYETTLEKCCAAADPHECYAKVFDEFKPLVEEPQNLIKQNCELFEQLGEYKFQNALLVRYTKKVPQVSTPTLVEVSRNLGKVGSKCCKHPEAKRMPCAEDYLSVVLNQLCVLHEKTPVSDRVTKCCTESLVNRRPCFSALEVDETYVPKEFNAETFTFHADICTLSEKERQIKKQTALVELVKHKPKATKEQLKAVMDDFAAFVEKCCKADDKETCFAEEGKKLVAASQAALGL

Broadly, the Ki is the equilibrium dissociation constant of an inhibitor or competing ligand from its target. GGTTGGUGUGGTTGG (ssDNA, dU at 7 and 9) [15-mer dU7 dU9] yielded an inhibition constant Ki in data set [1] of 15 nM. Regarding GGTTGGTGTGGTTGG (ssDNA, Z 5-(1-propynyl)-2'-deoxyuridine [4 (Z = 5-(1-propynyl)-2'-deoxyuridine)]) [15-mer propynyl-dU 4], the activity in data set [2] worked out at 187 s clot time.

B1: pentynyl-dU clone 24 60-mer (ssDNA)
DNA: TAGAATACTCAAGCTTCGACGGTATATAGTATAGTATTGGCAGTTTGGATCCCCGGGTAC
modifications: X 5-pentynyl-dU; T in 3' constant region also 5-pentynyl-dU; T in 5' constant region unmodified [23,25,27,30,32,35,37,38 (X = 5-pentynyl-dU); 44,45,46,50,58 (3' constant region T = 5-pentynyl-dU)]
What is called Kd is the equilibrium constant for the complex coming apart. Consider B1, for which binding in data set [3] was put at a Kd of 400 nM. The binding result in data set [4], in data set [5], in data set [6], in data set [7] and in data set [8] was “no binding” in each case. Regarding GGTTGGTGTGGTTGG (ssDNA, Z 5-(1-propynyl)-2'-deoxyuridine [3 (Z = 5-(1-propynyl)-2'-deoxyuridine)]) [15-mer propynyl-dU 3], the activity in data set [2] was determined as 138 s clot time. The same measure, in the same setting: the figure for GGTTGGTGTGGTTGG (ssDNA, Z 5-(1-propynyl)-2'-deoxyuridine [12 (Z = 5-(1-propynyl)-2'-deoxyuridine)]) [15-mer propynyl-dU 12] is 129 s clot time; for GGTTGGTGTGGTTGG (ssDNA, Z 5-(1-propynyl)-2'-deoxyuridine [9 (Z = 5-(1-propynyl)-2'-deoxyuridine)]) [15-mer propynyl-dU 9] it is 120 s clot time. For GGUTGGTGTGGUTGG (ssDNA, dU at 3 and 12) [15-mer dU3 dU12], the affinity in data set [1], expressed as Ki, was 80 nM. This counts as double-digit nanomolar. GGTTGGTGTGGTTGG (ssDNA, Z 5-(1-propynyl)-2'-deoxyuridine [7 (Z = 5-(1-propynyl)-2'-deoxyuridine)]) [15-mer propynyl-dU 7] registered an activity in data set [2] of 118 s clot time. GGTTGGTGTGGTUGG (ssDNA, U13 is 5-(1-pentynyl)-2'-deoxyuridine) [15-mer pentynyl-U13]: the affinity in data set [1], expressed as Ki, was 20 nM. With GGTTGGGCTGGTTGGGTTGGG (ssDNA) [21-mer thrombin aptamer], the Kd in data set [3] was around 350 nM. The molecule also came in with a Ki in data set [1] of around 100 nM.
